Data set [1] has as its system TTX poisoning in female CD-1 mice. Particulars: mouse, in vivo, ip.
Data set [2] can be described thus: Thermofluor (TF) assay of STX binding. As to conditions: 1.1 μM Sxph, 0-20 μM STX; ΔTm at 20 μM toxin. A general note: DSF heats the sample and reads unfolding from a dye or from intrinsic fluorescence.
The conditions of data set [3]: read-out: RcSxph affinity for STX; prior radioligand assay; cited from earlier work.
The format of data set [4] is binding. As to conditions: ITC, STX, 25° C. The protocol: . […] In almost all mutants, binding affinity loss correlated with a reduction in enthalpy, consistent with a loss of interactions (Table S2). […]. […] Together, these three assays (FIGS. 1E and G) provide a robust and versatile suite of options for characterizing STX:Sxph interactions.
ITC measurements were performed at 25° C. using a MicroCal PEAQ-ITC calorimeter (Malvern Panalytical). […]. This STX stock was diluted with the SEC buffer to prepare 100 μM or 300 μM STX solutions having a final buffer composition of 135 mM NaCl, 9 mM HEPES, pH 7.4. […]. The calorimetric experiment settings were: reference power, 5 μcal/s; spacing between injections, 150 s; stir speed 750 rpm; and feedback mode, high. Data were analyzed using MicroCal PEAQ-ITC Analysis Software (Malvern Panalytical) using a single binding site model. The heat of dilution from titrations of 100 μM STX in 135 mM NaCl, 9 mM HEPES, pH 7.4 into 135 mM NaCl, 9 mM HEPES, pH 7.4 was subtracted from each experiment to correct the baseline.

Data set [5] is classed as binding.
The subject of the next data set is female CD-1 mice. Particulars: 60 nmoles/Kg RcSxph, IP, observed up to one hour.
Data set [6] deals with STX poisoning in female CD-1 mice. The data set is classed as in vivo. Particulars: RcSxph:STX 2:1 molar ratio, 30 nmoles/Kg STX, 60 nmoles/Kg RcSxph, IP, observed up to one hour.
Data set [7] is classed as binding. Particulars: for Kd: FP; for ΔΔG: ΔΔG = RT ln(Kd mutant or XSxph/Kd RcSxph), T = 298K, FP with F-STX.
Data set [8] has as its system Phyllobates terribilis NaV1.4 (PtNaV1.4). Briefly: Two-electrode voltage clamp: Sxph rescue of PtNaV1.4 from STX block in Xenopus oocytes. The data set is classed as cell-based. As to conditions: [Sxph]:[STX] ratio, 100 nM STX, PtNaV1.4 in Xenopus oocytes. On the technique in general: Two-electrode voltage clamp holds a large cell at a set potential and records current.

Where [9] appears, read: 1 nM F-STX, 25° C., errors S.D.

Entries after “also recorded” stand apart in the source; their conditions may differ. Where two headings read alike, the source gives them in different places.

B1: RcSxph: Rana (Lithobates) catesbeianus (American bullfrog) saxiphilin, SEQ ID NO: 1 (protein)
chain: MAPTFQTALFFTIISLSFAAPNAKQVRWCAISDLEQKKCNDLVGSCNVPDITLVCVLRSSTEDCMTAIKDGQADAMFLDSGEVYEASKDPYNLKPIIAEPYSSNRDLQKCLKERQQALAKKMIGHYIPQCDEKGNYQPQQCHGSTGHCWCVNAMGEKISGTNTPPGQTRATCERHELPKCLKERQVALGGDEKVLGRFVPQCDEKGNYEPQQFHGSTGYSWCVNAIGEEIAGTKTPPGKIPATCQKHDLVTTCHYAVAMVKKSSAFQFNQLKGKRSCHSGVSKTDGWKALVTVLVEKKLLSWDGPAKESIQRAMSKFFSVSCIPGATQTNLCKQCKGEEGKNCKNSHDEPYYGNYGAFRCLKEDMGDVAFLRSTALSDEHSEVYELLCPDNTRKPLNKYKECNLGTVPAGTVVTRKISDKTEDINNFLMEAQKRQCKLFSSAHGKDLMFDDSTLQLALLSSEVDAFLYLGVKLFHAMKALTGDAHLPSKNKVRWCTINKLEKMKCDDWSAVSGGAIACTEASCPKGCVKQILKGEADAVKLEVQYMYEALMCGLLPAVEEYHNKDDFGPCKTPGSPYTDFGTLRAVALVKKSNKDINWNNIKGKKSCHTGVGDIAGWVIPVSLIRRQNDNSDIDSFFGESCAPGSDTKSNLCKLCIGDPKNSAANTKCSLSDKEAYYGNQGAFRCLVEKGDVAFVPHTVVFENTDGKNPAVWAKNLKSEDFELLCLDGSRAPVSNYKSCKLSGIPPPAIVTREESISDVVRIVANQQSLYGRKGFEKDMFQLFSSNKGNNLLFNDNTQCLITFDRQPKDIMEDYFGKPYYTTVYGASRSAMSSELISACTIKHC
For the molecule B1, the “mitigation of TTX poisoning in mice” value in [1] is “unable to mitigate TTX poisoning”. Also, in [2], the “ΔTm (STX-induced change of melting temperature)” value worked out at 3.6 °C. In addition, the Kd in [3] is ~1 nM. Also, in data set [4], the Kd came to 1.2 ± 0.8 nM, the “ΔH” value is -16.1 ± 0.2 kcal/mol and the “ΔS (cal mol^−1 K^−1)” value is given as −12.7 ± 0.9 cal mol^−1 K^−1. Further, in [4] (listed as RcSxph WT), the “ΔH” value was -16.1 ± 0.2 kcal/mol. Further, in data set [5], the “ΔTm (TTX-induced change of melting temperature)” value was found to be 0.3 °C. Besides, in the data set with female CD-1 mice, the “adverse effects of RcSxph alone” value is given as “no detectable adverse effects”. Besides, in [6], the “protection of mice from STX poisoning” value was “protects mice from STX poisoning; also recorded: sufficient to protect mice completely from STX intoxication”.

B2: P727A: RcSxph STX binding pocket mutant P727A (protein)
chain: MAPTFQTALFFTIISLSFAAPNAKQVRWCAISDLEQKKCNDLVGSCNVPDITLVCVLRSSTEDCMTAIKDGQADAMFLDSGEVYEASKDPYNLKPIIAEPYSSNRDLQKCLKERQQALAKKMIGHYIPQCDEKGNYQPQQCHGSTGHCWCVNAMGEKISGTNTPPGQTRATCERHELPKCLKERQVALGGDEKVLGRFVPQCDEKGNYEPQQFHGSTGYSWCVNAIGEEIAGTKTPPGKIPATCQKHDLVTTCHYAVAMVKKSSAFQFNQLKGKRSCHSGVSKTDGWKALVTVLVEKKLLSWDGPAKESIQRAMSKFFSVSCIPGATQTNLCKQCKGEEGKNCKNSHDEPYYGNYGAFRCLKEDMGDVAFLRSTALSDEHSEVYELLCPDNTRKPLNKYKECNLGTVPAGTVVTRKISDKTEDINNFLMEAQKRQCKLFSSAHGKDLMFDDSTLQLALLSSEVDAFLYLGVKLFHAMKALTGDAHLPSKNKVRWCTINKLEKMKCDDWSAVSGGAIACTEASCPKGCVKQILKGEADAVKLEVQYMYEALMCGLLPAVEEYHNKDDFGPCKTPGSPYTDFGTLRAVALVKKSNKDINWNNIKGKKSCHTGVGDIAGWVIPVSLIRRQNDNSDIDSFFGESCAPGSDTKSNLCKLCIGDPKNSAANTKCSLSDKEAYYGNQGAFRCLVEKGDVAFVPHTVVFENTDGKNPAVWAKNLKSEDFELLCLDGSRAPVSNYKSCKLSGIPAPAIVTREESISDVVRIVANQQSLYGRKGFEKDMFQLFSSNKGNNLLFNDNTQCLITFDRQPKDIMEDYFGKPYYTTVYGASRSAMSSELISACTIKHC
For B2, the Kd in data set [7] (setting [9]) stood at 56.9 ± 12.1 nM. Moreover, in data set [7], the “ΔΔG” value was 1.21 kcal/mol. In data set [4], the Kd was 31.3 ± 11.6 nM, the “ΔG” value was -10.3 ± 0.2 kcal/mol, the “ΔH” value was -11.5 ± 0.0 kcal/mol and the “ΔS (cal mol^−1 K^−1)” value was −4.2 ± 0.9 cal mol^−1 K^−1. In data set [8], the “Effective Rescue Ratio50 (ERR50)” value is > 4.

B3: E540A: RcSxph STX binding pocket mutant E540A (protein)
chain: MAPTFQTALFFTIISLSFAAPNAKQVRWCAISDLEQKKCNDLVGSCNVPDITLVCVLRSSTEDCMTAIKDGQADAMFLDSGEVYEASKDPYNLKPIIAEPYSSNRDLQKCLKERQQALAKKMIGHYIPQCDEKGNYQPQQCHGSTGHCWCVNAMGEKISGTNTPPGQTRATCERHELPKCLKERQVALGGDEKVLGRFVPQCDEKGNYEPQQFHGSTGYSWCVNAIGEEIAGTKTPPGKIPATCQKHDLVTTCHYAVAMVKKSSAFQFNQLKGKRSCHSGVSKTDGWKALVTVLVEKKLLSWDGPAKESIQRAMSKFFSVSCIPGATQTNLCKQCKGEEGKNCKNSHDEPYYGNYGAFRCLKEDMGDVAFLRSTALSDEHSEVYELLCPDNTRKPLNKYKECNLGTVPAGTVVTRKISDKTEDINNFLMEAQKRQCKLFSSAHGKDLMFDDSTLQLALLSSEVDAFLYLGVKLFHAMKALTGDAHLPSKNKVRWCTINKLEKMKCDDWSAVSGGAIACTEASCPKGCVKQILKGEADAVKLEVQYMYEALMCGLLPAVAEYHNKDDFGPCKTPGSPYTDFGTLRAVALVKKSNKDINWNNIKGKKSCHTGVGDIAGWVIPVSLIRRQNDNSDIDSFFGESCAPGSDTKSNLCKLCIGDPKNSAANTKCSLSDKEAYYGNQGAFRCLVEKGDVAFVPHTVVFENTDGKNPAVWAKNLKSEDFELLCLDGSRAPVSNYKSCKLSGIPPPAIVTREESISDVVRIVANQQSLYGRKGFEKDMFQLFSSNKGNNLLFNDNTQCLITFDRQPKDIMEDYFGKPYYTTVYGASRSAMSSELISACTIKHC
As to B3, the Kd turned out to be 15300 ± 4130 nM in [7] (setting [9]) and 15300 nM in [7] (F-STX). Moreover, the “ΔΔG” value in [7] came out at 4.52 kcal/mol. Besides, the “ΔTm (STX-induced change of melting temperature)” value in [2] is reported as “complete loss of the thermal shift”. The “Effective Rescue Ratio50 (ERR50)” value in [8] is reported as “eliminated”.

B4: I782A: RcSxph STX binding pocket mutant I782A (protein)
chain: MAPTFQTALFFTIISLSFAAPNAKQVRWCAISDLEQKKCNDLVGSCNVPDITLVCVLRSSTEDCMTAIKDGQADAMFLDSGEVYEASKDPYNLKPIIAEPYSSNRDLQKCLKERQQALAKKMIGHYIPQCDEKGNYQPQQCHGSTGHCWCVNAMGEKISGTNTPPGQTRATCERHELPKCLKERQVALGGDEKVLGRFVPQCDEKGNYEPQQFHGSTGYSWCVNAIGEEIAGTKTPPGKIPATCQKHDLVTTCHYAVAMVKKSSAFQFNQLKGKRSCHSGVSKTDGWKALVTVLVEKKLLSWDGPAKESIQRAMSKFFSVSCIPGATQTNLCKQCKGEEGKNCKNSHDEPYYGNYGAFRCLKEDMGDVAFLRSTALSDEHSEVYELLCPDNTRKPLNKYKECNLGTVPAGTVVTRKISDKTEDINNFLMEAQKRQCKLFSSAHGKDLMFDDSTLQLALLSSEVDAFLYLGVKLFHAMKALTGDAHLPSKNKVRWCTINKLEKMKCDDWSAVSGGAIACTEASCPKGCVKQILKGEADAVKLEVQYMYEALMCGLLPAVEEYHNKDDFGPCKTPGSPYTDFGTLRAVALVKKSNKDINWNNIKGKKSCHTGVGDIAGWVIPVSLIRRQNDNSDIDSFFGESCAPGSDTKSNLCKLCIGDPKNSAANTKCSLSDKEAYYGNQGAFRCLVEKGDVAFVPHTVVFENTDGKNPAVWAKNLKSEDFELLCLDGSRAPVSNYKSCKLSGIPPPAIVTREESISDVVRIVANQQSLYGRKGFEKDMFQLFSSNKGNNLLFNDNTQCLATFDRQPKDIMEDYFGKPYYTTVYGASRSAMSSELISACTIKHC
Take B4: the Kd in data set [7] (setting [9]) is 3 ± 0.8 nM. In [7], the “ΔΔG” value was -0.53 kcal/mol. In addition, the “ΔTm (STX-induced change of melting temperature)” value in data set [2] was “DTm increases relative to wild-type”. In addition, in data set [8], the “Effective Rescue Ratio50 (ERR50)” value was found to be 0.87±0.02.

The values are drawn from patent US20260034194A1, “PHARMACEUTICAL COMPOSITIONS AND METHODS OF TREATING PSP” (priority 2022, published 2026).
